Positions count from the first letter of the chain named. Numbers in names are those of the source.
B1: ArnB (wild type) of Salmonella typhimurium (enzyme, S. typhimurium, UniProt Q8ZNF3 1-385, looked up)
chain: MAEGKMMSDFLPFSRPAMGAEELAAVKTVLDSGWITTGPKNQELEAAFCRLTGNQYAVAVSSATAGMHIALMALGIGEGDEVITPSMTWVSTLNMIVLLGANPVMVDVDRDTLMVTPEHIEAAITPQTKAIIPVHYAGAPADLDAIYALGERYGIPVIEDAAHATGTSYKGRHIGARGTAIFSFHAIKNITCAEGGIVVTDNPQFADKLRSLKFHGLGVDAWDRQSGGRAPQAEVLAPGYKYNLPDLNAAIALAQLQKLDALNARRAAIAAQYHQAMADLPFQPLSLPSWEHIHAWHLFIIRVDEARCGITRDALMASLKTKGIGTGLHFRAAHTQKYYRERFPTLTLPDTEWNSERICSLPLFPDMTESDFDRVITALHQIAGQ
B2: ArnB K188A mutant of Salmonella typhimurium (enzyme, S. typhimurium, UniProt Q8ZNF3 1-385, looked up)
chain: B1 chain with K188A

Legend:
SEC = biological target: the molecule itself; test: SEC
crystal structure = biological target: the molecule itself; test: crystal structure

Protein | stoichiometry N (SEC) | binding result (crystal structure)
B1 | 2 | –
B2 | – | binds

Source: paper PMC3985747 (Biochemistry, 2014)
